# Results taken from the RNAGym collection of RNA variant scans (doi:10.7554/elife.80360).
# B1: HDV Ribozyme (parent)
# chain: GGCCGGCAUGGUCCCAGCCUCCUCGCUGGCGCCGGCUGGGCAACAUUCCGAGGGGACCGUCCCCUCGGUAAUGGCGAAUGGGACCCA
# Variants of: B1
# Experiment: self-cleavage, relative activity (ratio to wild type); higher = more cleavage; co-transcriptional
row,Variant,self-cleavage
1,GGCCGGCUUGGUCCCAGCCUCCUCGCUGGCGCCGGCUGGGCAACAUUCCGCGGGGACCGUCCCCUCGGUAAUGGCGAAUGGGACCCA [A8U A51C],0.633
2,GGCCGGCAUGGUCCCAGCCUCCUCGCUGGCGCCGGAUGGGCAACAUUCCGAGGGGACCGUCCCCUCGGUAAUGGCGAAUGGGACUCA [C36A C85U],0.158
3,GGCCGGCAUGGUCCCAGCCUCCUCGCUGGCGCCGGCUGGGCAACUUUCCGAGGGGACCGUCCCCUCGGUAAUGGCUAAUGGGACCCA [A45U G76U],0.652
4,GGCCGGCAUGGCCCCAGCCUCCUCGGUGGCGCCGGCUGGGCAACAUUCCGAGGGGACCGUCCCCUCGGUAAUGGCGAAUGGGACCCA [U12C C26G],0.914
5,GGCCGGCAUGGUCCCAGCCUCCUCGCUGGCGCCGGCAGGGCAACAUUCCGAGGGGAACGUCCCCUCGGUAAUGGCGAAUGGGACCCA [U37A C57A],0.212
6,GGCUGGCAUGGUCCCAGCCUCCUUGCUGGCGCCGGCUGGGCAACAUUCCGAGGGGACCGUCCCCUCGGUAAUGGCGAAUGGGACCCA [C4U C24U],0.237
7,AGCCGGCAUGGUCCCAGCCUCCUCGCUGGCGCCGGCUGGGCAACAUUCAGAGGGGACCGUCCCCUCGGUAAUGGCGAAUGGGACCCA [G1A C49A],0.0923
8,GGCCGGCAUGGUCCCAGCCUCAUCGCUGGCGCCGGCUGGGCAACAUUCCGAGGGGACCGUCCCCUCGGUAAUGGAGAAUGGGACCCA [C22A C75A],0.0308
9,GGCCGGCAUGGUCUCAGCCUCCUCGCUGGCGCCGGCUGGGCAAGAUUCCGAGGGGACCGUCCCCUCGGUAAUGGCGAAUGGGACCCA [C14U C44G],0.7
10,GGCCGGCUUGGUCCCAGCCUCCUCGCUGGCGCCGGCUGGGCAACAUUCCGAGGGGACCGUCCCCUCGGUAAUGGCGAAUGGAACCCA [A8U G82A],0
11,GGCCGGCAUGGUCCCAGCCUCCUCGCUGGCGCCGGCUGGGCAACAUUCCGAGGGGAUCGUCCCCUCGGUAAUGGCGAAUGGCACCCA [C57U G82C],0.208
12,GGCCGGCAUGUUCCCAGCCUCCUGGCUGGCGCCGGCUGGGCAACAUUCCGAGGGGACCGUCCCCUCGGUAAUGGCGAAUGGGACCCA [G11U C24G],0.0966
13,GGCCGGCAUGGUCCCAGCCUCCUCGCUGACGCCGGCUGGGCAACAUUCCGAGGGGACCGUCCCAUCGGUAAUGGCGAAUGGGACCCA [G29A C64A],0.22
14,GGCCGGCAUGGUCCCAGCCUCCUCGCUGGGGCCGGCUGGGCAACAUUCCGAGGGGACCGUCCCCUCGGUAAUGGCGAAGGGGACCCA [C30G U79G],0.128
15,AGCCGGCAUGGUCCCAGCCUCCUCGCUGGCGCCGGCUGGGCAACAUUCGGAGGGGACCGUCCCCUCGGUAAUGGCGAAUGGGACCCA [G1A C49G],0.166
16,GGCCGGCAUGGUCCCAGCCUCCUCGCUGGCGCCGGCUGGGCAACAUUCCGAGGGGCCCGUCACCUCGGUAAUGGCGAAUGGGACCCA [A56C C62A],0.935

row,Variant,self-cleavage
1,GGCCGGCACGGUCCCAGCCUCCUCGCUGGCGCCGGCUUGGCAACAUUCCGAGGGGACCGUCCCCUCGGUAAUGGCGAAUGGGACCCA [U9C G38U],0.486
2,GGCCGGCAUGGUCCCAUCCUCCUCGCUGGCGCCGGCUGGGCAACAUUCCGAGGGGACGGUCCCCUCGGUAAUGGCGAAUGGGACCCA [G17U C58G],0.277
3,GGCCGGCAUGGUCCCAGCCUCCUCGCUGGCGCCGGCUGGGCAACAUUCCGUGGGGACCGUCCCCUCUGUAAUGGCGAAUGGGACCCA [A51U G67U],0.816
4,GGCCGGCAUGGUCCCAGCCUCCACGCUGGCGCCGGCUGGGGAACAUUCCGAGGGGACCGUCCCCUCGGUAAUGGCGAAUGGGACCCA [U23A C41G],0.849
5,GGCCGGCAUGGUCCCAGCCUCCUCGCUGGUGCCGGCUGGGCAACAUUCCGAGGGGACCGUCCCCUCGGUAAUGGCGAAUCGGACCCA [C30U G80C],0.208
6,GGCCGGCAUGGUCCCAGCCUCCACGCUGGCGCCGGCUGGGCAACAUUCCUAGGGGACCGUCCCCUCGGUAAUGGCGAAUGGGACCCA [U23A G50U],0.964
7,GGCCGGCAUGGUCCCAGCCUCCUCGCUGGCGCAGGCUGGGCAACAUUCCGAGGGGACCGUCCCCUCGGUAAUGGCGAAUGGGACCGA [C33A C86G],0.277
8,GGCCGGCAUGGUCCCAGCCUCCUCGCUCGCGCCGGCUGGGCAACAUUCCGAGGGGACCGUCCCCUCGGUAAUGGGGAAUGGGACCCA [G28C C75G],0.113
9,GGCCGGCAUGGUCCCAGCCUCCUCGCUGGCGCCGGCUGGGCAACAUUCCGAGGGGACCCUCCCCUCGGUAAUGGCGAAUGGGACCCA [G59C],1.01
10,GGCCGGCAUGGUCCCGGCCUCCUGGCUGGCGCCGGCUGGGCAACAUUCCGAGGGGACCGUCCCCUCGGUAAUGGCGAAUGGGACCCA [A16G C24G],0.178
11,GGCCGGCAUGGUCCCAGCCUCCUCGAUGGCGCCGGCUGGGCAGCAUUCCGAGGGGACCGUCCCCUCGGUAAUGGCGAAUGGGACCCA [C26A A43G],0.731
12,GGCCGGCAUGGUCCCAGCCUCCUCGCUGGCGCCGGCUGGGCGACAUUCCGAGGGGACCGUCCCCUCGGUAAUGGAGAAUGGGACCCA [A42G C75A],0.0554
13,GGCCAGCAUGAUCCCAGCCUCCUCGCUGGCGCCGGCUGGGCAACAUUCCGAGGGGACCGUCCCCUCGGUAAUGGCGAAUGGGACCCA [G5A G11A],0.101
14,GGCCGGCAUGUUCCCAGCCUCCUCGCUGGCGCCGGCUGGGCAACAUUCCGAGGGGACCGUCUCCUCGGUAAUGGCGAAUGGGACCCA [G11U C62U],0.403
15,GGCCGGCACGGUCCCAGCCUCCCCGCUGGCGCCGGCUGGGCAACAUUCCGAGGGGACCGUCCCCUCGGUAAUGGCGAAUGGGACCCA [U9C U23C],1.06
16,GGCCGGCAUGGUCCCAGCCUCCUCGCAGGCGCCGGCUGGGCAACAUUCCGAGGGGACCGUCCCCUCGGUAAUGGCGAAUGGGACACA [U27A C85A],0.957
